The supplement of paper PMC7877785
± gives the uncertainty stated by the source.

Assay: self-splicing fitness, log relative to wild type (ln ratio); higher = more splicing; Tetrahymena group I intron in knt gene, E. coli kanamycin selection, DiMSum; sequences stand for … in CUCUCU…GGAGGGAAAAGUUAUCAGGCAUGCACCUGGUAGCUAGUCUUUAAACCAAUAGAUUGCAUCGGUUUAAAAGGCAAGACCGUCAAAUUGCGGGAAAGGGGUCAACAGCCGUUCAGUACCAAGUCUCAGGGGAAACUUUGAGAUGGCCUUGCAAAGGGUAUGGUAAUAAGCUGACGGACAUGGUCCUAACCACGCAGCCAAGUCCUAAGUCAACAGAUCUUCUGUUGAUAUGGAUGCAGUUCACAGACUAAAUGUCGGUCGGGGAAGAUGUAUUCUUCUCAUAAGAUAUAGUCGGACCUCUCCUUAAUGGGAGCUAGCGGAUGAAGUGAUGCAACACUGGAGCCGCUGGGAACUAAUUUGUAUGCGAAAGUAUAUUGAUUAGUUUUGGAGUACUCGUGGUCG
Method in brief: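 Library with all eight P1ex-region intron nucleotides randomised, intron inside the knt kanamycin-resistance gene on pET-22b(+), in E. coli BL21(DE3). Cells grew overnight at 37°C or 30°C on LB agar with or without 25 μg/mL kanamycin (plus 100 μg/mL carbenicillin, 50 μM IPTG, 0.2% rhamnose), in six replicate transformations. Pooled colonies were amplicon-sequenced on Illumina HiSeq 2500. DiMSum fitness is the error-weighted combination of wild-type-normalised replicate fold changes, kanamycin versus none.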

Row | Sequence | self-splicing fitness (ln) (30 °C) | self-splicing fitness (ln) (37 °C)
1 | CGGGAGCAAUAUUACGACGG | -1.4 ± 0.23 | -0.65 ± 0.42
2 | CGGGAGCAAUAUUACGAGAU |  | -2.17 ± 0.35
3 | CGGGAGCAAUAUUACGAGCG | -1.78 ± 0.18 | -1.19 ± 0.48
4 | CGGGAGCAAUAUUACGAGUA | -2.74 ± 0.42 | 
5 | CGGGAGCAAUAUUACGCAUG | -2.83 ± 0.29 | -0.773 ± 0.21
6 | CGGGAGCAAUAUUACGCGAG |  | -2.93 ± 0.32
7 | CGGGAGCAAUAUUACGCGGA | -2.82 ± 0.23 | -2.93 ± 0.28
8 | CGGGAGCAAUAUUACGCGUA | -2.29 ± 0.29 | -1.03 ± 0.24
9 | CGGGAGCAAUAUUACGGCGU | -3.6 ± 0.26 | -1.73 ± 0.21
10 | CGGGAGCAAUAUUACGGUCA | -3.17 ± 0.32 | -1.93 ± 0.28
11 | CGGGAGCAAUAUUACGUAUA | -3.33 ± 0.33 | -2.4 ± 0.25
12 | CGGGAGCAAUAUUACGUCGA |  | -1.71 ± 0.48
13 | CGGGAGCAAUAUUACGUCUG | -3.61 ± 0.22 | -2.03 ± 0.22
14 | CGGGAGCAAUAUUACGUGCA | -3.02 ± 0.27 | -2.29 ± 0.22
15 | CGGGAGCAAUAUUACGUGUG | -2.47 ± 0.16 | -0.316 ± 0.11
16 | CGGGAGCAAUAUUACGUUAA | -2.63 ± 0.28 | -1.68 ± 0.3
17 | CGGGAGCAAUAUUACGUUCC | -2.75 ± 0.31 | 
18 | CGGUAGCAAUAUUACGACCU | 0.308 ± 0.21 | -0.233 ± 0.19
19 | CGGUAGCAAUAUUACGACGC | -1.39 ± 0.16 | -0.431 ± 0.2
20 | CGGUAGCAAUAUUACGACGG | -0.359 ± 0.081 | 0.071 ± 0.12
21 | CGGUAGCAAUAUUACGAGAU | -3.19 ± 0.3 | -2.32 ± 0.28
22 | CGGUAGCAAUAUUACGAGGA | -3.34 ± 0.46 | -1.75 ± 0.29
23 | CGGUAGCAAUAUUACGAUAA | -2.55 ± 0.21 | -1.61 ± 0.24
24 | CGGUAGCAAUAUUACGAUCU | -0.105 ± 0.081 | 0.492 ± 0.12
25 | CGGUAGCAAUAUUACGCAAG | -1.94 ± 0.11 | -1.02 ± 0.12
26 | CGGUAGCAAUAUUACGCACG | -2.85 ± 0.21 | -1.59 ± 0.26

Row | Sequence | self-splicing fitness (ln) (30 °C) | self-splicing fitness (ln) (37 °C)
27 | CGGUAGCAAUAUUACGCGCA | -1.16 ± 0.14 | -0.13 ± 0.15
28 | CGGUAGCAAUAUUACGGACC | -3.71 ± 0.35 | -1.29 ± 0.21
29 | CGGUAGCAAUAUUACGGAGC | -3.01 ± 0.33 | -2.91 ± 0.34
30 | CGGUAGCAAUAUUACGGCAU | -2.98 ± 0.32 | -2.11 ± 0.22
31 | CGGUAGCAAUAUUACGGGAA | -3.45 ± 0.41 | -2.75 ± 0.29
32 | CGGUAGCAAUAUUACGGUUC | -2.96 ± 0.3 | -1.93 ± 0.29
33 | CGGUAGCAAUAUUACGUAAC | -3.22 ± 0.4 | -2.06 ± 0.41
34 | CGGUAGCAAUAUUACGUCAU | -3.21 ± 0.14 | -2.56 ± 0.15
35 | CGGUAGCAAUAUUACGUCCA | 0.282 ± 0.15 | 0.197 ± 0.23
36 | CGGUAGCAAUAUUACGUUCA | -1.32 ± 0.13 | -0.963 ± 0.15
37 | CGUAAGCAAUAUUACGAACU | -1.27 ± 0.083 | -0.364 ± 0.074
38 | CGUAAGCAAUAUUACGCAGA | -2.28 ± 0.27 | -2.67 ± 0.38
39 | CGUAAGCAAUAUUACGCGUA | -3 ± 0.28 | -2.9 ± 0.2
40 | CGUAAGCAAUAUUACGCUGU | -2.93 ± 0.16 | -2.17 ± 0.21
41 | CGUAAGCAAUAUUACGGAAA | -3.62 ± 0.47 | -2.39 ± 0.39
42 | CGUAAGCAAUAUUACGGAUU | -3.61 ± 0.3 | -1.49 ± 0.23
43 | CGUAAGCAAUAUUACGGCGU | -2.28 ± 0.15 | -1.59 ± 0.23
44 | CGUAAGCAAUAUUACGGUAA | -3.06 ± 0.28 | -1.36 ± 0.17
45 | CGUAAGCAAUAUUACGGUCA | -2.2 ± 0.15 | -0.467 ± 0.12
46 | CGUAAGCAAUAUUACGUAGC | -4.38 ± 0.36 | -1.62 ± 0.26
47 | CGUAAGCAAUAUUACGUAUU |  | -0.991 ± 0.15
48 | CGUAAGCAAUAUUACGUCCG | -0.78 ± 0.059 | -0.649 ± 0.08
49 | CGUAAGCAAUAUUACGUCCU | -1.88 ± 0.15 | -0.604 ± 0.17
50 | CGUAAGCAAUAUUACGUCGG | -1.2 ± 0.08 | -0.133 ± 0.1
51 | CGUAAGCAAUAUUACGUCUC | -3.77 ± 0.28 | -1.95 ± 0.17
52 | CGUAAGCAAUAUUACGUGUC | -1.85 ± 0.22 | -3.01 ± 0.28

Row | Sequence | self-splicing fitness (ln) (30 °C) | self-splicing fitness (ln) (37 °C)
53 | CGUCAGCAAUAUUACGACCA | -0.734 ± 0.11 | -0.297 ± 0.13
54 | CGUCAGCAAUAUUACGACCC | -0.525 ± 0.18 | 0.0394 ± 0.17
55 | CGUCAGCAAUAUUACGAGCG | -3.52 ± 0.15 | -1.04 ± 0.15
56 | CGUCAGCAAUAUUACGAGGU | -3.81 ± 0.47 | -3.03 ± 0.35
57 | CGUCAGCAAUAUUACGAUGA | -0.998 ± 0.11 | 0.0314 ± 0.11
58 | CGUCAGCAAUAUUACGAUUA | -0.469 ± 0.17 | 0.0103 ± 0.13
59 | CGUCAGCAAUAUUACGAUUU | -1.01 ± 0.06 | -1.11 ± 0.061
60 | CGUCAGCAAUAUUACGCAUU | -3.62 ± 0.16 | -2.31 ± 0.16
61 | CGUCAGCAAUAUUACGCCAC |  | -1.01 ± 0.45
62 | CGUCAGCAAUAUUACGCCGC | -2.76 ± 0.32 | -1.05 ± 0.27
63 | CGUCAGCAAUAUUACGCUAC | -3.74 ± 0.43 | -0.956 ± 0.23
64 | CGUCAGCAAUAUUACGCUCA | -1.1 ± 0.15 | 0.0237 ± 0.12
65 | CGUCAGCAAUAUUACGCUUC | -3.46 ± 0.36 | -3.11 ± 0.31
66 | CGUCAGCAAUAUUACGCUUG | -1.03 ± 0.098 | 0.41 ± 0.12
67 | CGUCAGCAAUAUUACGGAUC | -1.12 ± 0.051 | -0.0121 ± 0.069
68 | CGUCAGCAAUAUUACGGCGA | -1.88 ± 0.17 | -1.57 ± 0.21
69 | CGUCAGCAAUAUUACGGCGG | -1.01 ± 0.082 | 0.0141 ± 0.11
70 | CGUCAGCAAUAUUACGGCUC | -1.43 ± 0.081 | 0.225 ± 0.088
71 | CGUCAGCAAUAUUACGGGCG | -3.15 ± 0.16 | -2.8 ± 0.21
72 | CGUCAGCAAUAUUACGGGUA | -1.81 ± 0.14 | -1.06 ± 0.1
73 | CGUCAGCAAUAUUACGGUAG | -0.184 ± 0.059 | 0.0634 ± 0.064
74 | CGUCAGCAAUAUUACGGUUA | -2.25 ± 0.12 | -0.874 ± 0.091
75 | CGUCAGCAAUAUUACGUGAA | -2.11 ± 0.087 | -0.281 ± 0.092
76 | CGUCAGCAAUAUUACGUUAU | -2.95 ± 0.14 | -2.83 ± 0.17
77 | CGUGAGCAAUAUUACGAAUG | -1.41 ± 0.16 | -0.913 ± 0.13
78 | CGUGAGCAAUAUUACGACUU | -2.96 ± 0.16 | -1.71 ± 0.19
